Results from FireProtDB.

Conditions: Bos taurus; pH 8; 30 °C; GdnHCl; CD; borate 10 mM

Chain of Phospholipase A2 wild type, P00593 (P00593 whole entry): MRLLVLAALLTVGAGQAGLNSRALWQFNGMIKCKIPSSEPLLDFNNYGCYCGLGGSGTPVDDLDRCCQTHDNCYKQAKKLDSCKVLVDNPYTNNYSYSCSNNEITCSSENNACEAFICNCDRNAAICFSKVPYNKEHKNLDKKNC

Substance: Phospholipase A2 wild type, P00593
- denaturant m value: 1.47 kcal/mol/M
- denaturant midpoint (higher = more stable): 6.9 M
- unfolding free energy: 9.5 kcal/mol
